# Experiments:
# [1] = biological target: T1, PYR1^CA3 (H60P, V83F, F159V), 6xHis fusion
# T1 chain: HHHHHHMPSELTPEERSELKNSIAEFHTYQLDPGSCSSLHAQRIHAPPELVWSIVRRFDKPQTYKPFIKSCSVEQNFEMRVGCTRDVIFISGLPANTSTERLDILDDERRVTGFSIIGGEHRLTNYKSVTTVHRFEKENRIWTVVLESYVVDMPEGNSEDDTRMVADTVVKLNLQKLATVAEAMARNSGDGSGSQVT
# [2] = biological target: T2, PYR1^CA4 (H60P, V83F, F159V, M158I), 6xHis fusion
# T2 chain: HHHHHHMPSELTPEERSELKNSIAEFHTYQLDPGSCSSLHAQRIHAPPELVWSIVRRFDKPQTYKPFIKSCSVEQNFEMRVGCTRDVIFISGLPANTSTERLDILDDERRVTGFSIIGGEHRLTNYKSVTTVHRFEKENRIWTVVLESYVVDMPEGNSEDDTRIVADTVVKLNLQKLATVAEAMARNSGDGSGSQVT
Protein,"PP2C activity, % of control, pNPP hydrolysis, in the absence of ABA [1]","PP2C activity, % of control, pNPP hydrolysis, in the absence of ABA [2]"
6xHis-SUMO-ABI1 (protein) HHHHHHSDSEVNQEAKPEVKPEVKPETHINLKVSDGSSEIFFKIKKTTPLRRLMEAFAKRQGKEMDSLRFLYDGIRIQADQTPEDLDMEDNDIIEAHREQIGGMEEVSPAIAGPFRPFSETQMDFTGIRLGKGYCNNQYSNQDSENGDLMVSLPETSSCSVSGSHGSESRKVLISRINSPNLNMKESAAADIVVVDISAGDEINGSDITSEKKMISRTESRSLFEFKSVPLYGFTSICGRRPEMEDAVSTIPRFLQSSSGSMLDGRFDPQSAAHFFGVYDGHGGSQVANYCRERMHLALAEEIAKEKPMLCDGDTWLEKWKKALFNSFLRVDSEIESVAPETVGSTSVVAVVFPSHIFVANCGDSRAVLCRGKTALPLSVDHKPDREDEAARIEAAGGKVIQWNGARVFGVLAMSRSIGDRYLKPSIIPDPEVTAVKRVKEDDCLILASDGVWDVMTDEEACEMARKRILLWHKKNAVAGDASLLADERRKEGKDPAAMSAAEYLSKLAIQRGSKDNISVVVVDLKPRRKLKSKPLN,both the triple and quadruple mutants dramatically increased basal PYR1 activity relative to wild-type PYR1,both the triple and quadruple mutants dramatically increased basal PYR1 activity relative to wild-type PYR1
6xHis-SUMO-ABI2 (protein) HHHHHHSDSEVNQEAKPEVKPEVKPETHINLKVSDGSSEIFFKIKKTTPLRRLMEAFAKRQGKEMDSLRFLYDGIRIQADQTPEDLDMEDNDIIEAHREQIGGMDEVSPAVAVPFRPFTDPHAGLRGYCNGESRVTLPESSCSGDGAMKDSSFEINTRQDSLTSSSSAMAGVDISAGDEINGSDEFDPRSMNQSEKKVLSRTESRSLFEFKCVPLYGVTSICGRRPEMEDSVSTIPRFLQVSSSSLLDGRVTNGFNPHLSAHFFGVYDGHGGSQVANYCRERMHLALTEEIVKEKPEFCDGDTWQEKWKKALFNSFMRVDSEIETVAHAPETVGSTSVVAVVFPTHIFVANCGDSRAVLCRGKTPLALSVDHKPDRDDEAARIEAAGGKVIRWNGARVFGVLAMSRSIGDRYLKPSVIPDPEVTSVRRVKEDDCLILASDGLWDVMTNEEVCDLARKRILLWHKKNAMAGEALLPAEKRGEGKDPAAMSAAEYLSKMALQKGSKDNISVVVVDLKGIRKFKSKSLN,both the triple and quadruple mutants dramatically increased basal PYR1 activity relative to wild-type PYR1,both the triple and quadruple mutants dramatically increased basal PYR1 activity relative to wild-type PYR1
